These results are taken from patent US11053304 (CENTIVAX, dated 2021).

What all share (assay): SPR, scFv captured via anti-V5, RBD as analyte
For assay [1], the target named is T1, SARS-CoV-2 Receptor Binding Domain (RBD) protein (SARS-CoV-2, UniProt P0DTC2 319-541).
The target in assay [2] is SARS-CoV-1 Receptor Binding Domain (RBD) protein (SARS-CoV-1, UniProt P59594 306-527).
Assay [3] has as its target MERS Receptor Binding Domain (RBD) protein (MERS coronavirus, UniProt K9N5Q8 367-606).
Assay [4] concerns the target T1, SARS-CoV-2 Receptor Binding Domain …. This is another data set of the same source.

Like-named read-outs stand apart in the source and are kept apart here.

B1: COVID19_P08_F04 (scFv, V domains shown)
VH: EVQLVESGGGLVQPGGSLRLSCAASGFRFDDFGMHWYRQAPGKGLEWVSATSGGGSITYYADSVKGRFTISRDNSKNTLYLQMNSLRAEDTAVYYCVTNMDNSRDYFPHYFHDMDVWGQGTLVTVSS
VL: not shown
For B1, the equilibrium dissociation constant (Kd) is less than 50 nM in assay [1] and 2.04 nM in assay [4]. Further, the binding result in assay [2] and in assay [3] was “no binding (tested: up to 300 nM)” throughout. The off-rate constant (koff) in assay [4] was 0.00019 s⁻¹. The association rate constant (kon) in assay [4] came to 93000 M⁻¹ s⁻¹.

B2: COVID19_P19_C07 (scFv, V domains shown)
VH: EVQLVESGGGLVQPGGSLRLSCAASGFPFSLYGMHWVRQAPGKGLEWVAVITSDGRSKFYADSVKGRFTISRDNSKNTLYLQMNSLRAEDTAVYYCVTNLDNSRDYFPHYFHDMDVWGQGTLVTVSS
VL: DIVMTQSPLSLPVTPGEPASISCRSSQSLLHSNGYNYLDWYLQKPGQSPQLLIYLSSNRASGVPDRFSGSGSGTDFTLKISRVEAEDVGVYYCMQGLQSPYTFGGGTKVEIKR
Regarding B2, the Kd in assay [1] is less than 50 nM. In addition, in assay [2], the binding result was “no binding (tested: up to 300 nM)”. For the same molecule, the binding result in assay [3] is given as “no binding (tested: up to 300 nM)”. In assay [4], the dissociation constant Kd was determined as 3.6 nM, the off-rate constant (koff) turned out to be 5.7e-05 s⁻¹ and the kon was 16000 M⁻¹ s⁻¹.
